Source: paper PMC5374107

biological target: ICAM-1D1D5-Fc (human); experiment: SPR; Biacore T-200; ICAM-1D1D5 Fc immobilized to 2100 RU on a CM5 chip pre-coupled to Protein A; wild type or mutant PF11_0521 DBLβ3_D4 injected, two-fold dilutions 4 nM to 500 nM, 40 µL/min, 240 s association, 660 s dissociation; 10 mM HEPES pH 8.0, 300 mM NaCl, 0.05% Tween-20; global fit to a one-site kinetic model

Substance	Kd [nM]	koff [s⁻¹]	kon [M⁻¹ s⁻¹]
PF11_0521 DBLβ3_D4 G1083A (domain or fragment)	3520	0.0701	19900
PF11_0521 DBLβ3_D4 G1084A (domain or fragment)	4060	0.0394	9700
PF11_0521 DBLβ3_D4 G1111A (domain or fragment)	34.1	0.000639	18700
PF11_0521 DBLβ3_D4 H1121A (domain or fragment)	962	0.00592	6100
PF11_0521 DBLβ3_D4 I1078S (domain or fragment)	1250	0.0235	18800
PF11_0521 DBLβ3_D4 K1124A (domain or fragment)	9.75	0.000154	15900
PF11_0521 DBLβ3_D4 M1071S (domain or fragment)	24.6	0.000451	18400
PF11_0521 DBLβ3_D4 N1082A (domain or fragment)	1320	0.0244	18400
PF11_0521 DBLβ3_D4 N1089A (domain or fragment)	6.3	0.000114	17900
PF11_0521 DBLβ3_D4 P1116A (domain or fragment)	1690	0.00237	1300
PF11_0521 DBLβ3_D4 R1077A (domain or fragment)	34.7	0.000382	11000
PF11_0521 DBLβ3_D4 T1120A (domain or fragment)	21.1	0.000298	14100
PF11_0521 DBLβ3_D4 domain, wild type (domain or fragment)	3.2	6.2e-05	19300

biological target: Recombinant His-tagged EPCR (human) (UniProt Q9UNN8); experiment: SPR; Biacore T-200; biotinylated EPCR immobilized to 650 RU on a CAP chip (Biotin Capture Kit); head structures injected, two-fold dilutions 500 nM to 4 nM, 30 µL/min, 240 s association, 720 s dissociation; 10 mM HEPES pH 7.4, 300 mM NaCl, 0.05% Tween-20, 2 mg/ml ssDNA; one-site kinetic model
Sequence (Q9UNN8 18-238): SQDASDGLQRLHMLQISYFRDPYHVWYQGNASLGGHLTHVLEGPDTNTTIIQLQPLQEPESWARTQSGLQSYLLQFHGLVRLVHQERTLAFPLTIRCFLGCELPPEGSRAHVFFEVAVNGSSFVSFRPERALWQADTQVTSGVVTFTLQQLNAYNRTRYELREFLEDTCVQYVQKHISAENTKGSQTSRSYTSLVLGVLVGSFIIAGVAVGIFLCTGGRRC

Substance	Kd [nM]	koff [s⁻¹]	kon [M⁻¹ s⁻¹]
PFD1235w head structure (CIDRα1.6-DBLβ3) (domain or fragment)	17.1	0.000581	34000

biological target: ICAM-1D1D5-Fc (human); experiment: SPR; Biacore T-200; ICAM-1D1D5 Fc immobilized to 1,400 RU on a CM5 chip pre-coupled to Protein A; head structures injected, two-fold dilutions 4 nM to 500 nM, 40 µL/min, 240 s association, 600 s dissociation; 10 mM HEPES pH 8.0, 300 mM NaCl, 0.05% Tween-20; one-site kinetic model

Substance	Kd [nM]	koff [s⁻¹]	kon [M⁻¹ s⁻¹]
PFD1235w head structure (CIDRα1.6-DBLβ3) (domain or fragment)	18	0.000108	6000
